The values that follow come from patent US20090208500A1 (Genentech, published 2009).

Substitutions are numbered along the chain they refer to.

Sequences and labels used below:
B1: humanized 2H7.v16 antibody from stable RNAi4 clone 6C (60% non-fucosylation) (antibody, human IgG1, kappa)
heavy: not shown
light: DIQMTQSPSSLSASVGDRVTITCRASSSVSYMHWYQQKPGKAPKPLIYAPSNLASGVPSRFSGSGSGTDFTLTISSLQPEDFATYYCQQWSFNPPTFGQGTKVEIKRTVAAPSVFIFPPSDEQLKSGTASVVCLLNNFYPREAKVQWKVDNALQSGNSQESVTEQDSKDSTYSLSSTLTLSKADYEKHKVYACEVTHQGLSSPVTKSFNRGEC
modifications: N-linked glycan at Asn297; 60% non-fucosylation
notes: Glycoform preparation of 2H7.v16 from clone 60 stably transfected with the RNAi4 construct
B2: humanized 2H7.v16 antibody from clone 'Parent' of Table 1 (5% non-fucosylation) (antibody, human IgG1, kappa)
heavy: not shown
light: B1 light
modifications: N-linked glycan at Asn297; 5% non-fucosylation
B3: humanized 2H7.v16 antibody from stable RNAi4 clone 5B (45% non-fucosylation) (antibody, human IgG1, kappa)
heavy: not shown
light: B1 light
modifications: N-linked glycan at Asn297; 45% non-fucosylation
notes: as for B1
B4: humanized 2H7.v16 antibody from stable RNAi4 clone 7C (63% non-fucosylation) (antibody, human IgG1, kappa)
heavy: not shown
light: B1 light
modifications: N-linked glycan at Asn297; 63% non-fucosylation
notes: as for B1
B5: humanized 2H7.v16 antibody from clone 'Control' of Table 1 (3% non-fucosylation) (antibody, human IgG1, kappa)
heavy: not shown
light: B1 light
modifications: N-linked glycan at Asn297; 3% non-fucosylation
B6: humanized 2H7.v16 antibody from stable RNAi4 clone 5F (70% non-fucosylation) (antibody, human IgG1, kappa)
heavy: not shown
light: B1 light
modifications: N-linked glycan at Asn297; 70% non-fucosylation
notes: as for B1
B7: humanized anti-CD20 antibody 2H7.v16, antibody pool with 35% to 37% nonfucosylation (from RNAi2 / RNAi4 transiently transfected clone #60 cells) (antibody, human IgG1, kappa)
heavy: not shown
light: B1 light
modifications: N-linked glycan at Asn297; about 35 to 37% nonfucosylated
notes: differs only in fucose content of the Fc glycan; In the ELISA the IgG was complexed with goat F(ab')2 anti-kappa; RNAi2 and RNAi4 pools are reported together; also called 2H7 antibody pool with 35% to 37% nonfucosylation; lower fucose containing 2H7 antibodies
B8: humanized anti-CD20 antibody 2H7.v511 containing 94-95% nonfucosylation (from best stable clone RNAi2.4-3d) (antibody, human IgG1, kappa)
heavy: EVQLVESGGGLVQPGGSLRLSCAASGYTFTSYNMHWVRQAPGKGLEWVGAIYPGNGATSYNQKFKGRFTISVDKSKNTLYLQMNSLRAEDTAVYYCARVVYYSYRYWYFDVWGQGTLVTVSSASTKGPSVFPLAPSSKSTSGGTAALGCLVKDYFPEPVTVSWNSGALTSGVHTFPAVLQSSGLYSLSSVVTVPSSSLGTQTYICNVNHKPSNTKVDKKVEPKSCDKTHTCPPCPAPELLGGPSVFLFPPKPKDTLMISRTPEVTCVVVDVSHEDPEVKFNWYVDGVEVHNAKTKPREEQYNATYRVVSVLTVLHQDWLNGKEYKCKVSNAALPAPIAATISKAKGQPREPQVYTLPPSREEMTKNQVSLTCLVKGFYPSDIAVEWESNGQPENNYKTTPPVLDSDGSFFLYSKLTVDKSRWQQGNVFSCSVMHEALHNHYTQKSLSLSPGK
light: B1 light with M32L, S91A
modifications: N-linked glycan at Asn297; 94-95% nonfucosylation
notes: In the ELISA the IgG was complexed with goat F(ab')2 anti-kappa; also called hu2H7.v511; 95% nonfucosylated material
B9: humanized anti-CD20 antibody 2H7.v511 containing 65% nonfucosylation (from transient run) (antibody, human IgG1, kappa)
heavy: B8 heavy
light: B1 light with M32L, S91A
modifications: N-linked glycan at Asn297; 65% nonfucosylation
notes: In the ELISA the IgG was complexed with goat F(ab')2 anti-kappa; also called hu2H7.v511; v511-NF

T1 sequence (P08637 17-208 F176V): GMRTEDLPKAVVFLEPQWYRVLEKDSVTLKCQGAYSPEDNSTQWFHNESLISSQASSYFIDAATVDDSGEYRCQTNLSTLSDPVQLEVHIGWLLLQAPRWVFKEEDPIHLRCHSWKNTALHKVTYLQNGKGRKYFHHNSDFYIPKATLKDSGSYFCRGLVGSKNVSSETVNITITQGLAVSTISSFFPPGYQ

One assay has as its target T1, human FcγRIII (V158), high affinity isotype (human, UniProt P08637 17-208).
T1 construct: Receptor captured by anti-GST; construct not described; also called FcγRIII (V158 allele); FcγRIIIA (V158); not shown: GST tag implied by capture on anti-GST coated plates
Kind of assay: FcγRIII binding ELISA; anti-GST captured receptor, IgG complexed with anti-kappa F(ab')2; relative activity. The protocol: (§1) MaxiSorp 96-well microwell plates (Nunc, Roskilde, Denmark) were coated with 2 μg/ml anti-GST (clone 8E2.1.1, Genentech), at 100 μl/well in 50 mM carbonate buffer, pH 9.6, at 4° C. overnight. Plates were washed with PBS containing 0.05% polysorbate, pH 7.4 (wash buffer) and blocked with PBS containing 0.5% BSA, pH 7.4, at 150 μl/well. After a one-hour incubation at room temperature, plates were washed with wash buffer. Human FcγRIII was added to the plates at 0.25 μg/ml, 100 μl/well, in PBS containing 0.5% BSA, 0.05% polysorbate 20, pH 7.4. (assay buffer). The plates were incubated for one hour and washed with wash buffer. Antibodies were incubated with goat F(ab′)₂ anti-K (Cappel, ICN Pharmaceuticals, Inc., Aurora, Ohio) at a 1:2 (w/w) ratio for 1 hour to form antibody complexes. Eleven […] serial dilutions of complexed IgG antibodies (0.85-50000 ng/ml in threefold serial dilution) in assay buffer were added to the plates. After a two-hour incubation, plates were washed with wash buffer. Bound IgG was detected by adding peroxidase labeled goat F(ab′)₂ anti-human IgG F(ab′)₂ (Jackson ImmunoResearch, West Grove, Pa.) at 100 μl/well in assay buffer. After a one-hour incubation, plates were washed with wash buffer and the substrate 3,3′,5,5′-tetramethyl benzidine (TMB) (Kirkegaard & Perry Laboratories) was added at 100 μl/well. The reaction was stopped by adding 1 M phosphoric acid at 100 μl/well. Absorbance was read at 450 nm on a multiskan Ascent reader (Thermo Labsystems, Helsinki, Finland). The absorbance at the midpoint of the standard curve (mid-OD) was calculated. The corresponding concentrations of standard and samples at this mid-OD were determined from the titration curves using a four-parameter nonlinear regression curve-fitting program (KaleidaGraph, Synergy software, Reading, Pa.). The relative activity was calculated by dividing the mid-OD concentration of standard by that of sample.
For orientation: ELISA stands for enzyme-linked immunosorbent assay.
Regarding B1, the “Binding (fold)” value was 10.1 fold.

Consider B2, for which the “Binding (fold)” value was 1 fold.

For B3, the “Binding (fold)” value worked out at 7.5 fold.

As to B4, the “Binding (fold)” value is 10.4 fold.

As for B5, the “Binding (fold)” value was 1 fold.

On to B6, for which the “Binding (fold)” value was determined as 13.7 fold.

In the next assay the target is T2, human FcγRIII (F158), low affinity isotype (human, UniProt P08637 17-208).
T2 construct: Receptor captured on plates by anti-GST (clone 8E2.1.1); also called FcγRIII (F158 allele); FcγRIIIA (F158); not shown: GST tag implied by capture on anti-GST coated plates
T2 sequence (P08637 17-208): as the sequence (P08637 17-208 F176V) above, with V160F counted along it
The assay is described as above. As for the experimental part: as §1
Take B1: the “Binding (fold)” value was determined as 34 fold.

As to B2, the “Binding (fold)” value stood at 1 fold.

For the molecule B3, the “Binding (fold)” value is 24.2 fold.

As to B4, the “Binding (fold)” value is 32.4 fold.

In the case of B5, the “Binding (fold)” value stood at 1 fold.

Consider B6, for which the “Binding (fold)” value came to 52.4 fold.

In the next assay the target is T1, human FcγRIII (V158), high affinity …. Kind of assay: FcγR binding ELISA; relative to 2H7 control cell line antibody (2 to 4% nonfucosylated).
B7: the “fold increase in binding affinity” value is 4 fold.

Another assay has as its target T2, human FcγRIII (F158), low affinity …. Described as above.
Regarding B7, the “fold increase in binding affinity” value came to 6 fold.

The target in the next assay is T1, human FcγRIII (V158), high affinity …. Kind of assay: FcγRIII binding ELISA; relative to control 2H7.v511 antibody pools with about 5% nonfucosylation. The protocol: as §1, with “Plates” for “MaxiSorp 96-well microwell plates (Nunc, Roskilde, Denmark) were coated with 2 μg/ml anti-GST (clone 8E2.1.1, Genentech), at 100 μl/well in 50 mM carbonate buffer, pH 9.6, at 4° C. overnight. Plates”
(§2) A FcγRIII binding assay was done with antibody 2H7.v511 containing either 65% nonfucosylation (from transient run) or 94-95% nonfucosylation (from best stable clone RNAi2.4-3d).
On to B8, for which the “fold increase in affinity” value was determined as 6.8 fold.

For B9, the “fold increase in affinity” value was found to be 4.8 fold.

In the next assay the target is T2, human FcγRIII (F158), low affinity …. Described as above. As for the experimental part: as §1, with “Plates” for “MaxiSorp 96-well microwell plates (Nunc, Roskilde, Denmark) were coated with 2 μg/ml anti-GST (clone 8E2.1.1, Genentech), at 100 μl/well in 50 mM carbonate buffer, pH 9.6, at 4° C. overnight. Plates”
as §2
With B8, the “fold increase in affinity” value came out at 9.8 fold.

For the molecule B9, the “fold increase in affinity” value amounted to 6.2 fold.
